Paper PMC5864733

Biological target: CsrA (Escherichia coli EPEC O127:H6 E2348/69, UniProt B7UHB4 1-61)
Test: EMSA; no CesT
Conditions: protein: recombinant; tags: GST tag, cleaved by PreScission (pGEX-6P-1); chain copies: 2; label: none (ethidium bromide stain); single strand, heated to 80 C and slowly cooled

Sequence of CsrA (B7UHB4 whole entry): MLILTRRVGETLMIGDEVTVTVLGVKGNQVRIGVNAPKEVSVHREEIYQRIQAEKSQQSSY

## CACUAAUAAUAUCAAUGGAUUGAUAUUAUUAAUG (structured_RNA) [nleA 5'UTR RNA]
  binding result: binds
